For experiment [1], the target named is Endothelial protein C receptor (human) (UniProt Q9UNN8). The experiment can be described thus: cell-based or functional assay.
Experiment [2] concerns the target Protease-activated receptor 1 (human) (UniProt P25116). The experiment can be described thus: cell-based or functional assay.

“And” between values parts separate entries of the source, which are not always exact repeats. Equal entries are not always repeated.

Sequence of Endothelial protein C receptor (human) (Q9UNN8 18-238): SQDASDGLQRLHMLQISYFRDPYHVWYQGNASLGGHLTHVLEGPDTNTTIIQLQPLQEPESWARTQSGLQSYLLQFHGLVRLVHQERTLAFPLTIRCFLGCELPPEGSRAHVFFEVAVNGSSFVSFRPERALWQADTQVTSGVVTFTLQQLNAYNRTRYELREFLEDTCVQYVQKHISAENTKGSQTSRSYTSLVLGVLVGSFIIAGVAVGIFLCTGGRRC
Sequence of Protease-activated receptor 1 (human) (P25116 42-425): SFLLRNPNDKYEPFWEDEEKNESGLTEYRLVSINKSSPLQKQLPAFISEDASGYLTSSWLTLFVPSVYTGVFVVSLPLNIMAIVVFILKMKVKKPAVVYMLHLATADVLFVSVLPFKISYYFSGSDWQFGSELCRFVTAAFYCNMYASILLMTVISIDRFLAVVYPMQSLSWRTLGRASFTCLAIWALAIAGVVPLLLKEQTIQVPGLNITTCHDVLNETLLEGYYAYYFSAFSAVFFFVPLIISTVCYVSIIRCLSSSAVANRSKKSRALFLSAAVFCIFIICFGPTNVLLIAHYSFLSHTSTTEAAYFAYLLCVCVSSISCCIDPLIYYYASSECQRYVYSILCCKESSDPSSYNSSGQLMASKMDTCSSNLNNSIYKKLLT

Take “Activated protein C (from UniProt P04070 43-461)”: in experiment [1], the inhibition of LPS (100 ng/mL)-mediated HMGB1 release by HUVECs (ELISA) was > 10 nM and 100 nM.
Regarding “PCgla/meizothrombin (meizothrombin with its Gla-domain replaced by that of protein C; Factor Xa-activated PCgla/prothrombin-3A)”, the inhibition of LPS (100 ng/mL)-mediated HMGB1 release by HUVECs (ELISA) in experiment [1] is less than 1 nM. This substance also returned an efficacy relative to APC in inhibiting adherence and migration of THP-1 cells across HMGB1-activated HUVEC monolayer in experiment [2] of 20 to 50 fold.

The values above are taken from patent publication US20130071375A1.
